B1: recombinant MGL (macrophage galactose-type lectin) tagged with a human IgG1 Fc fragment (Fc fusion)
chain: QNSKFQRDLVTLRTDFSNFTSNTVAEIQALTSQGSSLEETIASLKAEVEGFKQERQAGVSELQEHTTQKAHLGHCPHCPSVCVPVHSEMLLRVQQLVQDLKKLTCQVATLNNNASTEGTCCPVNWVEHQDSCYWFSHSGMSWAEAEKYCQLKNAHLVVINSREEQNFVQKYLGSAYTWMGLSDPEGAWKWVDGTDYATGFQNWKPGQPDDWQGHGLGGGEDCAHFHPDGRWNDDVCQRPYHWVCEAGLGQTSQESH

What was measured:
[1] = biological target: MGL receptor on murine bone marrow-derived dendritic cells (mouse (endogenous in BMDCs)) (UniProt Q8JZN1)
[2] = biological target: peptide 12, MUC1 tandem repeat peptide with the TPEaa trivalent alpha-S-GalNAc glycocluster 1 at the N-terminus, biotinylated; test: ELISA; biotinylated peptides 9-14 coupled to streptavidin-coated plates at twofold serial dilutions; probed with recombinant MGL-Fc at a constant concentration; detection with goat anti-human Fc-peroxidase; EC50 from curve fitting over the peptide concentration
[3] = biological target: peptide 13, MUC1 tandem repeat (glyco)peptide with the TPEaa trivalent alpha-S-GalNAc glycocluster 1 at the N-terminus, biotinylated; test: as above
[4] = biological target: peptide 14, MUC1 tandem repeat (glyco)peptide with a triethylene glycol spacer and the TPEaa trivalent alpha-S-GalNAc glycocluster 1 at the N-terminus, biotinylated; test: as above

UniProt Q8JZN1, sequence (Q8JZN1 entry or part of it): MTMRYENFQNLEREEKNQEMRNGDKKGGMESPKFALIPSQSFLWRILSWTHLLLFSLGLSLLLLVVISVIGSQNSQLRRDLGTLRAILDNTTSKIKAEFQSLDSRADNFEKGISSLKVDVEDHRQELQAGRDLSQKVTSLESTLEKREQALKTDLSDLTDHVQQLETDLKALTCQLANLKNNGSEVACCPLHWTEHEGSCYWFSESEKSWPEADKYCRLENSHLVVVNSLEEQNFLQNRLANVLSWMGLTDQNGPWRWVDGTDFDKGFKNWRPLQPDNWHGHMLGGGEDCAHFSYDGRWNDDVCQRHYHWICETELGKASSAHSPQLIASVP

Row | Molecule | decrease in accessible MGL on the BMDC surface (anti-MGL antibodies, flow cytometry) after treatment with peptide 12 for 30 min at 37 °C, against untreated cells [1] [%] | fold avidity against peptide 11 [2] [fold] | EC50 [3] [nM] | fold avidity against peptide 11 [3] [fold] | EC50 [4] [nM]
1 | peptide 12, MUC1 tandem repeat peptide with the TPEaa trivalent alpha-S-GalNAc glycocluster 1 at the N-terminus, biotinylated | 48 | – | – | – | –
2 | B1 | – | 10 | 3.9 | 10 | 2.65
